Consider two molecules from patent US20200291116A1 (ABEXXA BIOLOGICS, published 2020).

Experiment [1] addresses T1, HLA-E*0103 (extracellular domain with beta-2-microglobulin, recombinant) (human). In words: peptide binding and in vitro refolding.
Experiment [2] deals with T1, HLA-E*0103 (extracellular domain with …). In words: in vitro refold, Superdex 75, SEC-HPLC, 3D12 binding. (SEC sorts molecules by how far they enter the pores of the column.)

B1: peptide YLLPAIVHI (RNA Helicase p68) (peptide)
peptide: YLLPAIVHI
For the molecule B1, the binding result in experiment [1] is on record as “binds”.

B2: peptide GLADKVYFL (CAD protein) (peptide)
peptide: GLADKVYFL
For B2, the binding result in experiment [2] is on record as “binds”.
